The results in this text go back to the supplement of paper PMC12042874.

± gives the uncertainty stated by the source.

The series can be described thus: amyloid nucleation score (Sup35N fusion, yeast selection) (log enrichment); library NNK1; higher = more nucleation; inactive = no reads after selection. A digest of the protocol: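 The nucleation score, computed with DiMSum, is the log enrichment of output over input reads, centred on the mode score of non-aggregating sequences. Sequences with under 100 input reads were dropped. Reads were generated by Illumina sequencing of plasmid inserts from psi-negative yeast with Sup35N fused to peptides of 20 random codons, induced with 100 μM copper sulfate for 24 hours and grown 7 days at 30°C on medium lacking adenine and uracil.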
For the substance SSDGVSMLC, the amyloid nucleation score came to 0.33 ± 0.47.

For SSESICFNIRGQDINRT, the amyloid nucleation score was -0.446 ± 0.37.

On to SSFIPF, for which the amyloid nucleation score worked out at 0.1 ± 0.32.

In the case of SSGYSGSCVNINWC, the amyloid nucleation score turned out to be 6.412 ± 0.045.

Turning to SSKLSYWYKMAIESSFNVLH, the amyloid nucleation score was -0.083 ± 0.41.

SSKVERG showed an amyloid nucleation score of -0.139 ± 1.3.

Turning to SSLNLMPQVGEGRHTGV, the amyloid nucleation score is -0.648 ± 0.46.

Regarding SSPIGSSSFTMGCGWREQ, the amyloid nucleation score amounted to 0.599 ± 0.88.

In the case of SSPSMSINVYRLNKS, the amyloid nucleation score result was “inactive”.

On to SSRLKL, for which the amyloid nucleation score was found to be 1 ± 0.25.

Turning to SSRLVSFFGHSNTVLRMFNW, the amyloid nucleation score result was “inactive”.

As to SSSADLAATARLFAGWEVLY, the amyloid nucleation score amounted to 0.045 ± 0.74.

In turn, SSSFRHAMRPSSISQRISPC had an amyloid nucleation score of 0.354 ± 0.54.

For SSSKLLR, the amyloid nucleation score is -0.4 ± 0.7.

On to SSSKYMIFFYRAIHHHKGME, for which the amyloid nucleation score was 0.31 ± 0.33.

The substance SSTLLRMIEVRNGWEKGVWE gave an amyloid nucleation score of 0.083 ± 0.2.

The substance SSVYVRLVMGF yielded an amyloid nucleation score of 1.77 ± 0.61.

In turn, SSVYVSIQLGGTLPRWGGVR showed an amyloid nucleation score of 1.19 ± 0.3.

As for SSYSYSDLRTRYIRITSQLD, the amyloid nucleation score is 0.203 ± 0.47.

On to STCHRSSSTCWKGYVRGLVV, for which the amyloid nucleation score was 0.004 ± 0.18.

Consider STFWENIIVFFHGPYHDMHT, for which the amyloid nucleation score was -0.647 ± 0.69.

STKADTSRALVLCRGDC returned an amyloid nucleation score of -0.18 ± 0.59.

STLLMTSDSSALMLLYTSIL yielded an amyloid nucleation score of -0.336 ± 0.46.

STLYLLHGRNSHTGRSFSRH came in with an amyloid nucleation score of -1.01 ± 0.66.

The substance STNVGRILMCVQLSLWKLN displayed an amyloid nucleation score of 0.227 ± 0.29.

In turn, STRFPRLDALNGKKFYRKNT registered an amyloid nucleation score of 0.157 ± 0.66.

In turn, STRGHNMTEINVWMVHNILT yielded an amyloid nucleation score of -0.116 ± 1.4.

As for SVAHMVDISFVVHPVMSTGN, the amyloid nucleation score was -1.1 ± 0.82.

SVCKCKLNERIEKWNYRSIR: the amyloid nucleation score amounted to 0.227 ± 0.43.

On to SVFISNERL, for which the amyloid nucleation score entry was “inactive”.

SVGGWLSYRSDV showed an amyloid nucleation score of -0.901 ± 0.89.

SVGSLRRFSDFIYWNVVLNM showed an amyloid nucleation score of -0.3 ± 0.58.

Substance SVGTDY displayed an amyloid nucleation score of -0.465 ± 1.6.

Regarding SVHKWSSKTAMSLRTTYK, the amyloid nucleation score is 0.284 ± 0.69.

In the case of SVISNVCSKCTVTRRDGP, the amyloid nucleation score amounted to 3.17 ± 0.11.

Substance SVIYHRCLFLI gave an amyloid nucleation score of 6.906 ± 0.048.

In turn, SVKGRGRGILWMLAVSECVG yielded an amyloid nucleation score of -0.762 ± 0.62.

For the substance SVKNYLCLMTTPFVFVLEM, the amyloid nucleation score turned out to be 5.417 ± 0.049.

As for SVLCTLALSTCLGCLIVS, the amyloid nucleation score entry was “inactive”.

SVMGVSWFLFLDYGDSINFR: the amyloid nucleation score stood at 0.521 ± 0.36.

Take SVMNGVGPQWLVLTYLPVSR: the amyloid nucleation score is -0.38 ± 1.5.

As for SVNFRYPWCFTVGGMTVLLQ, the amyloid nucleation score is 0.007 ± 0.73.

SVNRCFSAFLSQAIT yielded an amyloid nucleation score of 0.042 ± 0.53.

For the substance SVRYWAYRFVHF, the amyloid nucleation score entry was “inactive”.

On to SVVRNEIYRYYKCSKTVSIW, for which the amyloid nucleation score was -0.513 ± 0.33.

Regarding SVWGIILYYWKY, the amyloid nucleation score amounted to 0.388 ± 0.43.

SVYPLF had an amyloid nucleation score of -0.268 ± 0.28.

Consider SVYVLSRGAVSMSVWHR, for which the amyloid nucleation score stood at 3.64 ± 0.15.

Turning to SWATWLDMNG, the amyloid nucleation score stood at 0.964 ± 0.76.

Consider SWCHFVCLYPKHVFSVVSST, for which the amyloid nucleation score was 0.562 ± 1.2.

Substance SWCRGLEVQWLRCIFRM returned an amyloid nucleation score of 0.274 ± 0.69.

Turning to SWFTVRCDDC, the amyloid nucleation score entry is “inactive”.

Regarding SWFYYAKC, the amyloid nucleation score was found to be 0.05 ± 0.76.

Turning to SWIEKDHFQVGARYRMSS, the amyloid nucleation score is -0.376 ± 0.6.

Take SWLCHRTSVLVPVVSISRKL: the amyloid nucleation score stood at 1.15 ± 0.7.

Substance SWNNNAFAGMIPSNVVCCTY registered an amyloid nucleation score of 1.97 ± 0.26.

Substance SWRLMIRYVDTPNSWNFSTM had an amyloid nucleation score of -0.183 ± 0.67.

The substance SWRNVLKSGASRNKVDRSSL gave an amyloid nucleation score of -0.22 ± 1.1.

Take SWSEVGWTHCMSWASHI: the amyloid nucleation score was -1.14 ± 2.4.

For SWVGRAVVEYSARARASTES, the amyloid nucleation score was -0.327 ± 0.33.

Consider SWVSAVIHRYGV, for which the amyloid nucleation score is 1.31 ± 0.15.

The substance SYAGYGTNK had an amyloid nucleation score of -0.242 ± 0.62.

Consider SYFKCMIILSRMLLVVLEI, for which the amyloid nucleation score is -0.272 ± 0.65.

As to SYHLLMHMGIGQTLYKTRYD, the amyloid nucleation score was found to be 1.98 ± 0.21.

In turn, SYIDHYITKSDAVWRVSIEQ displayed an amyloid nucleation score of -0.176 ± 0.35.

Substance SYNTIIGSSCN had an amyloid nucleation score of 0.701 ± 0.69.

In turn, SYPCTVHTKGWLVFTCGVCI yielded an amyloid nucleation score of 0.32 ± 0.73.

Substance SYQVRDVIKSF displayed an amyloid nucleation score of 4.52 ± 0.1.

As for SYRHSSTSCKFGYVYRFTCL, the amyloid nucleation score worked out at 1.19 ± 0.41.

Consider SYRRAVHGVVVQQKRDEFVL, for which the amyloid nucleation score was -0.026 ± 0.36.

Substance SYSDICEVNLDTHKFVLGVR returned an amyloid nucleation score of -0.992 ± 0.49.

Substance SYTYCLVVG came in with an amyloid nucleation score of 0.157 ± 1.4.

Consider SYVMGLVYLIYTCKYWFFSE, for which the amyloid nucleation score is -0.827 ± 1.7.

With SYVRLFERFWVNFRSHMGNC, the amyloid nucleation score worked out at 0.014 ± 0.52.

For the substance TAASTHLVSACTLTKRCERL, the amyloid nucleation score is -0.673 ± 0.92.

In the case of TAFFCRFPSCGGYIAYRSYV, the amyloid nucleation score is -1 ± 1.2.

The substance TAFLGTSGG returned an amyloid nucleation score of 0.448 ± 0.42.

TASICSYR showed an amyloid nucleation score of -0.289 ± 0.49.

Regarding TAVDLWYGGVGGLALNGVVS, the amyloid nucleation score was 0.594 ± 0.62.

With TAYAFNDCEFEPVWSRIVGN, the amyloid nucleation score was -0.412 ± 0.48.

Take TCFEMLPLK: the amyloid nucleation score stood at 0.454 ± 0.5.

As to TCFSSILKDMVWRNRRRWGY, the amyloid nucleation score was 0.216 ± 0.84.

With TCIDVQQYDCLVFFYFLHGF, the amyloid nucleation score entry is “inactive”.

Take TCISTCYD: the amyloid nucleation score was -0.183 ± 0.9.

In turn, TCLCD gave an amyloid nucleation score of 1.52 ± 0.46.

TCLRACVHLVNYGVDMFSDK displayed an amyloid nucleation score of 1.83 ± 0.32.

Turning to TCPWWTVIVFTSESMP, the amyloid nucleation score result is “inactive”.

TCRNFRHG showed an amyloid nucleation score of -0.542 ± 0.57.

As for TDCHS, the amyloid nucleation score entry is “inactive”.

With TDDATNVRKGAHS, the amyloid nucleation score was 0.602 ± 0.6.

With TDFMVGCVNMRRSESVWYC, the amyloid nucleation score was determined as 0.767 ± 0.39.

In turn, TDGIAVSFTNHDVWMVDAFV returned an amyloid nucleation score of 0.241 ± 1.4.

The substance TDPRNNACVFYVCYYTSCWD registered an amyloid nucleation score of 0.923 ± 0.66.

TEDVKAVKVLGLTLGVQVIT: the amyloid nucleation score is -0.657 ± 0.38.

In turn, TEGRKSSNVQ gave an amyloid nucleation score of 0.577 ± 0.47.

Regarding TESVRKWFKLRLWESWYNSN, the amyloid nucleation score was 0.145 ± 0.51.

In turn, TFAVLRNSGFM came in with an amyloid nucleation score of 0.529 ± 0.84.

For the substance TFFVVCKSTLILYEI, the amyloid nucleation score was -0.186 ± 0.52.

Consider TFGLRFVYMAHLVVWCADHR, for which the amyloid nucleation score was 0.036 ± 0.33.

In the case of TFISSMPNQMIFPKGGSRGC, the amyloid nucleation score result was “inactive”.

Substance TFKKWMRIVYNLISKLKSRH came in with an amyloid nucleation score of 2.98 ± 0.081.

As to TFKSTLFSYFPGPQEHARGR, the amyloid nucleation score came to 1.93 ± 0.25.

Turning to TFLMCRNACYK, the amyloid nucleation score was determined as 4.35 ± 0.15.

TFMHARDYDMNS displayed an amyloid nucleation score of -0.666 ± 0.86.

With TFSFARLRDLKWVMPRVRRS, the amyloid nucleation score worked out at 0.27 ± 0.44.

Consider TFSTGFGGIISLACVRRQYL, for which the amyloid nucleation score was found to be 0.049 ± 0.88.

As for TFVDGGSFSENVVVMIRFYH, the amyloid nucleation score is 4.99 ± 0.064.

In the case of TFYEMPFIFDLCYRWLTVTG, the amyloid nucleation score turned out to be 1.34 ± 0.65.

Substance TFYKYVGSTISPSFGFRYVG yielded an amyloid nucleation score of -0.052 ± 0.38.

TGAYSECFALLIMG gave an amyloid nucleation score of -1.09 ± 1.

The substance TGCRHFLQVCSVHRRRGSVC displayed an amyloid nucleation score of 0.022 ± 0.78.

TGGFIFHGCAFYRMFSWLVD returned an amyloid nucleation score of 0.849 ± 1.1.

The substance TGLELGVPKIRCMSFHVLPW showed an amyloid nucleation score of -0.394 ± 0.92.

With TGLYSYIGFSDGYCVYEMIT, the amyloid nucleation score is -0.122 ± 1.6.

Consider TGNGTCCESFSRSDKENSDA, for which the amyloid nucleation score entry is “inactive”.

Substance TGSHLPRDGSVSKCVFRY registered an amyloid nucleation score of 0.248 ± 0.53.

TGSQLWHIIFRC: the amyloid nucleation score was determined as 0.214 ± 0.24.

Consider TGYGSDNCI, for which the amyloid nucleation score entry was “inactive”.

For the substance TGYLIYSSWC, the amyloid nucleation score is 0.146 ± 0.4.

As for TGYWKSFSSAF, the amyloid nucleation score stood at 0.072 ± 0.93.

The substance THAMCRYQSHGKLLSSGADS registered an amyloid nucleation score of 0.781 ± 0.65.

Consider THDLRLMIGHDCDTVNGYSR, for which the amyloid nucleation score was -0.725 ± 0.43.

The substance THFTTYYYWSQWGLWLSFCQ had an amyloid nucleation score of 0.596 ± 0.31.

THGPFRCLSNCDVFTPNPEE displayed an amyloid nucleation score of 1.03 ± 0.62.

In turn, THSRFKVCPVSMLCNAPQQR registered an amyloid nucleation score of 0.626 ± 1.2.

For the substance TICNEINQFKAK, the amyloid nucleation score is 0.35 ± 0.59.

In the case of TIDCMLWGYFRNDSTKCTAA, the amyloid nucleation score turned out to be 0.205 ± 0.47.

In turn, TIDVCDSHLMAYTVDWNCVW displayed an amyloid nucleation score of 0.505 ± 0.62.

Regarding TIFIAMDFNRVGKLFYRN, the amyloid nucleation score amounted to 5.368 ± 0.05.

Substance TIIPLHIRAIYA came in with an amyloid nucleation score of 0.956 ± 0.28.

TIMFLVITIPRFHNDLMVLS: the amyloid nucleation score was -0.79 ± 0.37.

TIQPRRWYVYSKQFLWNLCC: the amyloid nucleation score was 1.35 ± 0.14.

As to TIRVLDRTFVS, the amyloid nucleation score entry was “inactive”.

In turn, TIRVQHYCVDRGQESVLMGS came in with an amyloid nucleation score of -0.524 ± 0.51.

Take TISGNVSCQKYSRLCVQGLS: the amyloid nucleation score stood at 0.449 ± 0.25.

In turn, TISLDRRDAVNYLVAHLCSV came in with an amyloid nucleation score of -0.146 ± 1.4.

Substance TISYLS yielded an amyloid nucleation score of 0.198 ± 0.39.

In the case of TIVYATGMNMYTDAC, the amyloid nucleation score is -0.203 ± 0.34.

In turn, TIWLDCLMDKTYVFDCLFSF came in with an amyloid nucleation score of 0.587 ± 1.1.

Substance TKDGIT displayed an amyloid nucleation score of 0.305 ± 0.97.
